Results: PMC7136269, “CXXC5 as an unmethylated CpG dinucleotide binding protein contributes to estrogen-mediated cellular proliferation”

T1: FL-CXXC5 (human, UniProt Q7LFL8 1-322)
T1 sequence: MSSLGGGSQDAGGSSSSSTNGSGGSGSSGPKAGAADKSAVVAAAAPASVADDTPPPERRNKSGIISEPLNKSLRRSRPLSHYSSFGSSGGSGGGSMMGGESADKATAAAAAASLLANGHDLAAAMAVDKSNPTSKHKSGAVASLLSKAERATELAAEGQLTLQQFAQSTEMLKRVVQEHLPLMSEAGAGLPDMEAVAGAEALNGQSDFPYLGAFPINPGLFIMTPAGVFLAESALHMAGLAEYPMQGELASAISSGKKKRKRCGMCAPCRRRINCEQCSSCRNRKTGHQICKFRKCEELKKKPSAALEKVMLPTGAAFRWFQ

T2: CXXC-D (CXXC domain of CXXC5) (human, UniProt Q7LFL8 250-309)
T2 sequence: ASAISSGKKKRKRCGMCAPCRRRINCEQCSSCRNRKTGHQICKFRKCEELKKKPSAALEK


How the values were obtained:
FL-CXXC5 [1] = biological target: T1, FL-CXXC5; assay: ITC; ITC: 10 uM protein, 300 uM DNA, 25 C, VP-ITC, one-site fit; DNA annealed in 20 mM Tris pH 7.5, 150 mM NaCl; protein eluted in 20 mM Tris pH 7.5, 150 mM NaCl, 1; settings: protein: recombinant, tags: 6xHis removed by TEV (pET28a-MHL), blunt
FL-CXXC5 [2] = biological target: T1, FL-CXXC5; assay: ITC; similar affinity to N1; ITC: 10 uM protein, 300 uM DNA, 25 C, VP-ITC, one-site fit; DNA annealed in 20 mM Tris pH 7.5, 150 mM NaCl; protein eluted in 20 mM Tris pH 7.5, 150 mM NaCl, 1; settings: protein: recombinant; tags: 6xHis removed by TEV (pET28a-MHL); blunt; self-complementary
[3] = biological target: T2, CXXC-D (CXXC domain of CXXC5); assay: ITC; ITC: 10 uM protein, 300 uM DNA, 25 C, VP-ITC, one-site fit; DNA annealed in 20 mM Tris pH 7.5, 150 mM NaCl; protein eluted in 20 mM Tris pH 7.5, 150 mM NaCl, 1; settings: protein: recombinant; tags: 6xHis removed by TEV (pET28a-MHL); blunt

Row | Binder | binding result (FL-CXXC5 [1]; self-complementary) | binding result (FL-CXXC5 [1]) | other results
1 | mCG DNA, distinct flanks (dsDNA, 5-methyl-C at position 8 (central mCG; self-complementary, so both strands)) DNA 1: GAGAGACCGGTCTCTC DNA 2: GAGAGACCGGTCTCTC | no binding |  | 
2 | mCG DNA (dsDNA, 5-methyl-C at position 8 (GTGATACmCGGATCAGT); lower strand presumably also methylated at its central CpG) DNA 1: GTGATACCGGATCAGT DNA 2: ACTGATCCGGTATCAC |  | no binding | 
3 | AT DNA (dsDNA) DNA 1: GTGATACATGATCAGT DNA 2: ACTGATCATGTATCAC |  | no binding | 
4 | CG DNA, distinct flanks (dsDNA) DNA 1: GAGAGACCGGTCTCTC DNA 2: GAGAGACCGGTCTCTC |  |  | binding result (FL-CXXC5 [2]): binds
5 | AT DNA, distinct flanks (dsDNA) DNA 1: GAGAGACATGTCTCTC DNA 2: GAGAGACATGTCTCTC | no binding |  | 
6 | CG DNA (dsDNA) DNA 1: GTGATACCGGATCAGT DNA 2: ACTGATCCGGTATCAC |  | binds | binding result [3]: binds
